T1: Biotin sY51 PSGL-1(42-62) peptide (human, sulfotyrosine at Y51; C-terminal Lys-biotin)
T1 construct: also called Y51(SO3) PSGL-1(42-62)
T1 peptide: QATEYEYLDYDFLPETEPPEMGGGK

T2: Scrambled Y46,48,51(SO3) PSGL-1(42-62) biotin peptide (sulfotyrosine at peptide positions 5, 7 and 10; C-terminal Lys-biotin)
T2 construct: also called scrambled sulfated peptide: biotin
T2 peptide: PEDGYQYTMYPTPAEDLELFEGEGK

T3: Biotin PSGL-1(42-62) D52A peptide (C-terminal Lys-biotin)
T3 peptide: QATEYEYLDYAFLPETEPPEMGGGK

T4: Recombinant human PSGL-1(ECD)-hFc1 (R&D Systems, Cat. 3345-PS) (human, UniProt Q14242 42-305)
T4 construct: Bought; Gln42-Val295 counted on AAC50061; also called PSGL-1-Fc; PSGL-1-hFc1 chimera; not shown: human IgG1 Fc, Pro100-Lys330
T4 sequence: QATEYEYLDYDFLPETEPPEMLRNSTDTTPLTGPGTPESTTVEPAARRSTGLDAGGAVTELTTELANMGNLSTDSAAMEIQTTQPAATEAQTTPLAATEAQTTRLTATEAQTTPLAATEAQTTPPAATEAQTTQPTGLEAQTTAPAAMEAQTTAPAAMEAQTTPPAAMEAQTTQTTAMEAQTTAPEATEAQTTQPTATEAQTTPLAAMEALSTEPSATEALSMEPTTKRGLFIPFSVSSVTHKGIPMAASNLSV

T5: Biotin PSGL-1(42-62) P55A peptide (C-terminal Lys-biotin)
T5 peptide: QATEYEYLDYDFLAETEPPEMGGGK


Assays:
[1] = target: T1, Biotin sY51 PSGL-1(42-62) peptide; assay: ELISA, immobilized biotin peptide
Method in brief: (§1)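 In this ELISA, half-well high binding plates (Corning Cat. #3690) received 3 ug/mL/25 ul per well of biotin-tagged PSGL-1 peptides covering residues 42 to 62, diluted in PBS, pH 7.4, and coated overnight at 4° C. Duplicate readings for each antibody were averaged and the average assay background was subtracted. PSGL-1 protein or peptide was the positive control.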

[2] = target: T2, Scrambled Y46,48,51(SO3) PSGL-1(42-62) …; assay: ELISA, immobilized biotin peptide
Method in brief: as §1

[3] = target: T3, Biotin PSGL-1(42-62) D52A peptide; assay: ELISA; against wild-type PSGL-1 42-62
[4] = target: T3, Biotin PSGL-1(42-62) D52A peptide; assay: ELISA, streptavidin-bound Ala peptide
[5] = target: T4, Recombinant human PSGL-1(ECD)-hFc1 (R&D …); assay: Octet tandem; competitor 18F17
Method: (§2) Antibody binning was performed by ForteBio Octet® using a tandem assay format, with anti-human IgG biosensor-immobilized PSGL-1(ECD)-hFc1 protein, binding of competitor mAb followed by analyte antibody. As competition controls, the same antibody was competed against itself, and mAb competition was performed bidirectionally.
(§3) Antibody binning by tandem octet was performed by immobilizing 10 ug/mL PSGL-1(ECD)-hFc1 (R&D Systems, Cat. #3345-PS) in PBS, pH 7.4, onto anti-human IgG capture biosensors (ForteBio, Cat. #18-5060), binding of 100 nM competitor antibody for 300 sec., followed by binding of 100 nM of analyte mAb for 300 s in kinetic buffer (0.1% BSA in PBS containing 0.02% tween 20 and 0.05% sodium azide, pH 7.4). Synagis (Johnson et al. (1997) J. Infect. Dis. 176:1215-1224) served as a negative control mAb for competition. An Fc quench step (0.25 mg/mL human IgG Fcl; BioXcell, Cat. #BE0096, in kinetic buffer) was included when human mAbs were tested to prevent high background from the antibodies binding to the anti-human IgG biosensor. Biosensor regeneration buffer consisted of 10 mM glycine, pH 2.0.

[6] = target: T4, Recombinant human PSGL-1(ECD)-hFc1 (R&D …); assay: Octet tandem; competitor 15A7
Method: as §2, §3

[7] = target: T5, Biotin PSGL-1(42-62) P55A peptide; assay: ELISA; against wild-type PSGL-1 42-62
[8] = target: T5, Biotin PSGL-1(42-62) P55A peptide; assay: ELISA, streptavidin-bound Ala peptide

Row | Binder | EC50 [1] [nM] | EC50 [2] [nM] | % binding of analyte mAb [5] [%] | % binding of analyte mAb [6] [%] | also measured
1 | 5E12 (antibody, V domains shown, Mouse hybridoma mAb; only variable domains given) VH: EIQLQQSGAELVRPGASVKLSCTASGFNIKDDYIHWVKQRPEQGLEWIGRIDPANGNTKSAPKFQDKATITADTSSNTAYLHLSSLTSEDTAVYYCSIRFAYWGQGTLVTVSA VL: DVVMTQTPLSLSVSLGDQASISCRSSQSLVYRNGDTYLHWFLQKPGQSPKLLIYKVSNRFSGVPDRFSGSGSGTDFTLKISRVEAEDLGIYFCSQNTHVPYTFGGGTKLEIK | 0.547 | 32.3 |  |  | 
2 | 18F02 (antibody, V domains shown, From mouse immunisation; only variable domains given) VH: QVQLQQPGAELVKPGASVKLSCKASGYTFTSYWMHWVKQRPGQGLEWIGMIHPNSGRTNYNEKFKSKATLTVDKSSSTAYMQLSSLTSEDSAVYYCARSDYWGQGTTLTVSS VL: DIVMTQAAFSNPVTLGTSASISCRSSKSLLHSDGITYLYWFLQRPGQSPQLLIYRMSNLASGVPDRFSGSGSGTDFTLRISRVEAEDVGVYYCAQMLEFPRTFGGGTKLEIK | 0.705 |  |  |  | binding result [2]: no binding; EC50Ala/EC50 wt [3]: > 100 fold; EC50 [4]: > 10 nM
3 | 18K07 (antibody, V domains shown, From mouse immunisation; only variable domains given) VH: QIQLVQSGPELKKPGETVKISCEASGYTFTTYGMNWVKQAPGKGLKWMGWINTYSGVPTYADDFQGRFAFSVETSATTAYLQINNLKNEDAATYFCARSDDTYYGFAYWGQGTLVTVSA VL: not shown |  |  | 91.4 | 23.9 | 
4 | 16E17 (antibody, V domains shown, From mouse immunisation; only variable domains given) VH: QIQLVQSGPELKKPGETVKISCKASGYAFTTYGMSWVKQAPGKGLKWMGWINTYSGVPKYADDFKGRFAFSLETSASTAYLHINNLKNEDTATYFCGRHYYGSSYFDYWGQGTTLTVSS VL: not shown |  |  | 93.8 | 21 | 
5 | 19N05 (antibody, V domains shown, From mouse immunisation; only variable domains given) VH: QIQLVQSGPELKKPGETVKISCKASGYTFTTYGMSWVKQAPGKGLKWMGWINTYSGVPTFADDFKGRFAFSLETSASTAYLQINNLKNEDTATFFCARNYYGNHYFDYWGQGTTLTVSS VL: DVQITQSPSYLAASPGETISINCRASNNINKYLAWYQEKPGKTNKLLIYSGSTLQSGIPSRFSGSGSGTDFTLTISSLEPEDFAMYHCQQHNYYPLTFGAGTKLELK |  |  | 65.3 | 36 | 
6 | 19L04 (antibody, IgG4, V domains shown, From mouse immunisation; only variable domains given) VH: QIQLVQSGPELKKPGETVKISCKASGYTFTTYGMSWVKQAPGKGLKWMGWINTYSGVPTYADDFKGRFAFSLETSASTAYLQINNLKIEDTATYFCARHYYGSHYFDYWGQGTTLTVSS VL: DIMMTQSPSSLAMSVGQKVTLRCKSSQSLLNSSNQKNYLAWYQQKPGQSPKLLVYFASTRESGVPVRFIGSGSGTDFTLTISSMQAEDLADYFCQQHYFSPLTFGAGTKLELK |  |  | 81.4 | 28.3 | 
7 | 43B6 (antibody, V domains shown, Control anti-PSGL-1 mAb, recombinant; only variable domains given; also called 43B3) VH: EVQLQQSGPDLVKPGALVKISCKASGYSFTAYYIHWVKQSHGKSLEWIGRVNPNTGGTSYNPKFKGKAILNVDKSSSTAYMELRSLTSEDSAVYYCARSGSPYYRYDDWGQGTTLTVSS VL: ENVLTQSPAIMSASPGEKVTMTCRASSTVNSTYLHWFQQKSGASPKLWIYGSSNLASGVPARFSGSGSGTSYSLTISSVEAEDAATYYCQQYSGYPLTFGAGTTLELK |  |  |  |  | EC50Ala/EC50 wt [7]: 9.5 fold; EC50 [8]: 1.8 nM; binding result [4]: no binding
8 | 2E12 (antibody, V domains shown, Mouse hybridoma mAb; only variable domains given) VH: QVQLQQSGAELARPGASVKLSCKASGYTFTNYGLNWVKQRTGQGLEWIGEIYPRSGNTYYNEKFKGKATLTADKSSSTAYMQLSSLTSEDSAVYFCATEGAYWGQGTLVTVSA VL: DIVMTQTPLTLSVTIGQPASISCKSSQSLLHGNGKTYLNWLLQRPGQSPKLLIYLVSKLESGIPDRFSGSGSGTDFTLEISRVEAEDLGIYYCLQSTHFPRTFGGGTKLEIK | 0.659 | 30 |  |  | 
9 | 19I01 (antibody, V domains shown, From mouse immunisation; only variable domains given; also called 19101) VH: EVQLVESGGGLVKPGGSRKLSCAASGFTFSDYGMHWVRQAPEKGLEWVAYISSGSSTIYYADTVKGRFTISRDNAKNTLFLQMTSLRSEDTAMYYCARGVDGYWGQGTTLTVSS VL: DVVMTQTPLSLPVSLGDQASISCRSSQSLVHSNGNTYLHWYLQKPGQSPKFLIYKVSNRFSGVPDRFSGSGSGTDFTLKISRVEAEDLGVYFCSQTTHVPLTFGAGTKLELK | 1.22 | 198 |  |  | EC50Ala/EC50 wt [7]: 68.4 fold; EC50Ala/EC50 wt [3]: 15.9 fold; EC50 [8]: 8.21 nM; EC50 [4]: 3.18 nM
10 | 16L15 (antibody, V domains shown, From mouse immunisation; only variable domains given) VH: DVKLVESGGGLVKLGGSLKLSCAASGFTFSSYYMSWVRQTPEKRLEWVATISNGGGSTYYPDSVKDRFTISRDNAKNTLYLQMSSLNSEDTAVYYCAKPLYYSNPWFAYWGQGTLVTVSA VL: DVLLTQTPLSLPVSLGDQASISCRSSQSIVHSNGNTYLEWYLQKPGQSPKLLIYKVSNRFSGVPDRFSGSGSGTDFTLKISRVEAEDLGVYYCFQGSHVPRTFGGGTKLEIK | 0.814 |  |  |  | binding result [2]: no binding; EC50Ala/EC50 wt [3]: 21 fold; EC50 [4]: 19.9 nM
11 | 9F9 (antibody, V domains shown, Control anti-PSGL-1 mAb, recombinant; only variable domains given; also called 9F6) VH: EVQLVETGGGLVQPKGSLKLSCAASGFTFNTNAMNWVRQAPGKGLEWVARIRSKSNNYATYYADSVKDRFTISRDDTQSMIYLQMNNLKTEDTGMYYCVRGGSYWYFDVWGAGTTVTVSS VL: DVLMTQTPLSLPVSLGDQASISCRSSQSIVNSNGNTYLEWYLQKPGQSPKLLIYKVSNRFSGVPDRFSGSGSGTDFTLKISRVEAEDLGVYYCFQGSHVPWTFGGGTKLEIK |  |  |  |  | EC50Ala/EC50 wt [7]: > 100 fold; EC50 [8]: > 10 nM; binding result [4]: no binding
12 | 05D01 (antibody, V domains shown) VH: QVTLRESGGALVQPGGSLRLSCAASGFPLRSNAMTWVRQAPGKGLEWVSDIRGNGASTYYADSVKGRFTISRDDSNNILFLQMNSLRAEDTAVYYCVGHGSSSYWGQGTLVTVSS VL: DVVMTQSPLSLPVTLGQPASISCRSSQSLVYRDGNIYLNWFQQRPGQSPRRLIYKVSNRDSGVPDRFSGSGSGTDFTLKISRVEAEDVGVYYCMQLTHWPPGFAQGTKLEIK |  | 1.33 |  |  | 
